Laboratory results published in the supplement of paper PMC10266784.

B1: library; numbered along this chain (parent)
chain: MAAAAAAAAEQQSSNGPVKKSMREKAVERRSVNKEHNSNFKAGYIPIDEDRLHKTGLRGRKGNLAICVIILLFILAVINLIITLVIWAVIRIGPNGCDSMEFHESGLLRFKQVSDMGVIHPLYKSTVGGRRNENLVITGNNQPIVFQQGTTKLSVENNKTSITSDIGMQFFDPRTQNILFSTDYETHEFHLPSGVKSLNVQKASTERITSNATSDLNIKVDGRAIVRGNEGVFIMGKTIEFHMGGNMELKAENSIILNGSVMVSTTRLPSSSSGDQLGSGDWVRYKLCMCADGTLFKVQVTSQNMGCQISDNPCGNTH

Variants of: B1
Experiment: SGCB cell-surface expression functional score (HA stain, bin4 vs bin1, normalised to synonymous) (log10 ratio); higher = more cell-surface SGCB (functional)
Protocol: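 Deep mutational scan of full-length human SGCB (YFP-SGCB-HA, NNN codon sublibraries A-F) delivered by lentivirus at low MOI into ADG-HEK293 cells stably expressing SGCA, SGCD and SGCG. YFP-positive cells were stained for surface HA on unpermeabilized cells and FACS-sorted into bins. The functional score is log10(frequency in high bin 4 / frequency in low bin 1), normalised per chunk so that synonymous variants have mean 0 and SD 0.5. Scores are the median over codons and over duplicate biological replicates; scores below -0.5 are called non-functional. Scale: negative means deleterious.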

SGCB cell-surface expression functional score (log10) of substitutions, site by site:
P17: L -0.13, Y 0.31, C 0.46, I -0.28, K 0.13, F 0.2, Q -0.31, D 0.27, R -0.12, W -0.2, M -0.04, N 0.1, T 0.31, E 0.21, H 0.1
Q11: K -0.03, R 0.14, V -0.03, H 0.19, L 0.04, C 0.65, F 0.07, A -0.04, N 0.3, G 0.64, E 0.17, W 0.61, S 0.39, T -0.02, I -0.5, D 0.04, M -0.03, Y 0.17, P 0.41
N15: E 0.33, Q 0.32, A 0.45, S -0.02, T 0.14, G 0.04, C 0.19, D -0.15, P 0.34, Y 0.13, I 0.04, H -0.07, L 0.32, M 0.35, V 0.31, F 0.28, R 0.19, K 0.05, W 0.29
A6: F 0.37, N 0.26, R 0, M 0.13, K -0.2, Y 0.61, G 0.15, D 0.24, Q 0.69, W -0.46, V 0.22, C -0.11, T 0.07, E -0.14, I 0.36, S 0.25, H -0.23, P 0.11, L -0.21
M1: E -0.03, C 0.25, G 0.1, S 0.07, P 0.21, N 0.37, K 0.14, A 0.12, I -1.06, H 0.01, F -0.28, R -0.06, T -1.08, V 0.28, Y -0.02, D 0.69, L -1.26, Q 0.35, W -0.07
A7: S -0.09, Y 0.05, V 0.16, F 0.02, W 0.57, N 0.06, K 0.48, H -0.54, E -0.36, Q 0.41, R 0.24, C 0.18, M 0.23, G 0.2, T 0.27, I 0.29, P 0.29, D 0.19, L 0.13
S13: I -0.1, K 0.46, H 0.13, M 0.29, D 0.05, E 0.25, L 0.02, T -0.13, P 0.2, F -0.45, G -0.08, A 0.2, Q 0.29, N 0.08, Y 0.05, V 0.2, C -0.36, W 0.8, R -0.07
Q12: E 0, W -0.29, N 0.01, V -0.06, I -0.43, L 0.03, Y -0.05, A 0.29, M -0.09, T -0.35, R 0.29, F -0.27, D -0.24, P 0.06, K 0.02, H 0.03, S 0.04, C -0.19, G 0.12
A2: C 0.1, Y 0.14, F -0.48, K 0.23, I 0.13, L 0.2, D -0.07, P 0.24, E -0.61, Q 0.19, T 0.11, S 0.14, R 0.03, V 0.12, H 0.34, G 0.17, M 0.02, W -0.4, N 0.38
